Legend:
[1] = tested on: HRTEC cells; test: DNA fragmentation by gel electrophoresis and FIGE; format: cell-based, human; conditions: 4 mg/ml for 24 h
Experimental: (§1) Remaining cells were analysed for DNA fragmentation.

[2] = tested on: L1210 cells; test: Cell surface binding of biotinylated protein, flow cytometry; parameters: species or system murine; conditions: biotinylated MAL
Experimental: MAL, human α-lactalbumin (HLA) and immunoglobulin G were biotinylated according to the manufacturer's instructions or labelled with ^125I with the lactoperoxidase method. Proteins were dissolved in PBSA-T buffer (30 mM Na2HPO4, 120 mM NaCl, pH 7.4, with 0.1% NaAzid, 0.05% Tween-20) and 25 μl of protein (25 μg) was incubated with 2 μl of ^125([…]), 2 μl of lactoperoxidase (2.5 mg/ml) and 2 μl of H2O2 (diluted 1:2000 in PBS) for 2 min at room temperature. The reaction was stopped by the addition of 500 μl of PBSA-T. The labelled protein was purified on a PD-10 column. 500 μl fractions in PBSA-T were eluted and fractions containing radioactivity were stored at […]. […] L1210, A549 and HRTEC cells (3×10^6 cells/ml, 50 μl) were incubated in suspension with 50 μl of biotinylated MAL, ALA or BSA for various times at 37° C. The cells were washed with PBS by centrifugation at 320×g for 10 min and the supernatant was discarded. FITC-conjugated streptavidin (diluted 1:50 in PBS) was added and the cells were incubated for 30 min at room temperature. The cells were washed by centrifugation as above, suspended in 300 μl PBS and the surface fluorescence was analysed by flow cytometry on a Coulter Epics Profile II flow cytometer (Coulter Inc.), equipped with a 488 nm argon laser. Green fluorescence was detected with a 525 nm band pass filter. The PMT voltage was initially set to 1250 V and adjusted for day to day variation using calibration with Immunobeads (Coulter).

[3] = tested on: A549 cells; test: Cell surface binding of 125I-labelled protein, cell associated radioactivity; parameters: species or system human; conditions: 30 min exposure to 2×10^6 cpm of 125I-labelled protein
Experimental: (§2) Cell surface binding of MAL was also quantitated as the cell associated radioactivity during the first 30 min after addition of ^125I-labelled MAL to the cells (FIG. 2B). […]

[4] = tested on: HRTEC cells; test: as above; parameters: species or system human; conditions: 30 min exposure to 2×10^6 cpm of 125I-labelled protein
Experimental: as §2

[5] = tested on: digitonin-permeabilized cells; test: DNA fragmentation in digitonin-permeabilized cells; format: cell-based; conditions: 0.4 mg/ml
Experimental: Briefly, 1×10^6 cells were incubated in 100 μl of nuclear transport buffer (NTB), with the addition of 1 μg/ml each of leupeptin, aprotinin, antipain, and 40 μg/ml of digitonin for 5 min at room temperature and washed by centrifugation at 320×g for 10 min in NTB. Biotinylated protein (5 μl, 5 mg/ml) was added to the cells in a total volume of 100 μl NTB supplemented with phosphcreatin, creatine phosphokinase and ATP, incubated for various time at RT and washed twice in NTB by centrifugation at 320×g for 10 min. The cells were treated with 0.2% Triton-X100 in NTB for 6 min and washed finally 1:100 dilution of fluorescein-conjugated strepatvidin was added for 30 min at RT and washed. The cells were then inspected by fluorescence microscopy in a Nikon Microphot (Japan) microscope or by laser scanning confocal microscopy in a BioRad MRC-1024 instrument.
When adding 0.4 mg/ml of MAL to digitonin-permeabilized cells, HMW DNA fragments were formed after 1 hour and oligonucleosomal fragments after 2 hours. […] IgG was not detected in isolated nuclei or in nuclei of digitonin-permabilized cells (FIG. 7a).

[6] = tested on: A549 cells; test: Subcellular fractionation of cells exposed to 125I-labelled protein; format: cell-based, human
Experimental: The intracellular distribution of MAL was further analysed in cells exposed to ^125I-labelled MAL with ^[…] α-lactalbumin and IgG as controls (FIG. 4). Subcellular fractions were prepared after mechanic disruption of the cells and the amount of radiolabelled MAL in each fraction was determined in relation to the total cell-associated radioactivity measured prior to disruption of the cells. Fraction P1 contained mostly cell nuclei, P2 contained plasma-Golgi-, ER-membranes and mitochondria, P3 contained small vesicles and the supernatant. Fraction S contained the cytosolic proteins. The purity of the fractions was determined by quantitation of specific markers (DNA, alkaline phosphatase, RNA and catalase).
Specifically, cellular subfractionation was performed as described (J. Graham., Isolation of subcellular organelles and membranes., p161-1019. In D. Rickwood ed., Centrifugation, a practical approach, 2nd ed. IRL Press, Washington D.C.). L1210, A549 or HRTEC cells in suspension (3×10^6 cells/ml, 100 μla were incubated with 1×10^6 cpr of ^125I-labelled MAL, ALA or IgG for various times at 37° C. The cells were washed three times with ice-cold PBS and the supernatants were discarded. The cells were suspended in 500 μl of homogenisation buffer (10 mM Tris-HCl, pH 7.8, 5 mM MgCl2 and 2 mM CaCl2 for L1210 cells and 0.15M NaCl, 2 mM EDTA, pH 7.5 for A549 cells), and homogenised by 50 strokes in a Dounce homogenizer (Thomas, Philadelphia, USA) with pestle size 415. Sucrose was added to a final concentration of […] and the homogenate was centrifuged at 100×g for 25 min at RT. The first pellet contained nuclei, large mitochondria and large sheets of plasma membrane. The remaining supernatant was further centrifuged at 12 000×g for 30 min at 4° C. resulting in a second pellet containing mitochondria endoplasmic reticulum, plasma membrane and cytoplasmic organelles. The supernatant was finally centrifuged at 150,000×g for 2 h at 4° C. resulting in a pellet containing small vesicles, endoplasmic reticulum and a supernatant containing cytosolic proteins.

[7] = tested on: L1210 cells; test: Cell viability by trypan blue exclusion; format: cell-based, murine; conditions: L1210 cell line
Experimental: as §1

[8] = tested on: L1210 cells; test: DNA fragmentation by gel electrophoresis and FIGE; format: cell-based, murine
Experimental: as §1

[9] = tested on: A549 cells; test: Cell viability by trypan blue exclusion; format: cell-based, human
Experimental: as §1

[10] = tested on: HRTEC cells; test: Cell viability by trypan blue exclusion; format: cell-based, human
Experimental: as §1

[11] = tested on: digitonin-permeabilized L1210, A549 and HRTEC cells; test: Nuclear uptake of biotinylated protein in digitonin-permeabilized cells; format: cell-based; conditions: digitonin treated cells, biotinylated MAL
Experimental: Digitonin permeabilizes the plasma nembrane, but leaves the nuclear membrane intact. […] Human IgG and monomeric α-lactalbumin were used as controls.
The digitonin-permeabilized L1210 cells were preincubated with 50 μg/ml of WGA for 20 minutes, washed and exposed to biotinylated MAL. IgG and α-lactalbumin were used as controls (FIG. 7).
The cells pretreated with WGA were then washed by centrifugation in NTB at 320×g for 10 min before addition of protein.

[12] = stated for the three cell types

B1: MAL: protein complex from human milk casein containing oligomeric forms of α-lactalbumin; the apoptosis-inducing fraction (protein, UniProt P00709 20-142, looked up)
Alpha-lactalbumin: KQFTKCELSQLLKDIDGYGGIALPELICTMFHTSGYDTQAIVENNESTEYGLFQISNKLWCKSSQVPQSRNICDISCDKFLDDDITDDIMCAKKILDIKGIDYWLAHKALCTEKLEQWLCEKL
modifications: oligomeric form from milk casein
notes: protein complex from human milk casein containing oligomeric forms of α-lactalbumin; the apoptosis-inducing fraction
[1]
  HMW DNA fragmentation: did not undergo HMW DNA fragmentation
[2]; 30 min, first of three cell types (L1210 by order)
  fluorescence intensity of cell surface binding: 12.1 times that of the streptavidin control
[2]; [12]
  time after which cell surface binding reached a maximum: 30 min
  time after which cell surface binding was detected: 10 min
[3]
  cell surface binding, cell associated radioactivity: 20 000 cpm
[4]
  cell surface binding, cell associated radioactivity: 18 000 cpm
[5]
  time after which HMW DNA fragments were formed: 1 h
  time after which oligonucleosomal fragments were formed: 2 h
[6]; 24 h, denominator in brackets
  total cell associated radioactivity: 27000
[6]; 24 h, numerator in brackets
  radioactivity in nuclear fraction (P1): 13700
[6]; final time-point
  radioactivity in cytosolic fraction: 6800 cpm
  radioactivity in pellet 2: 5100 cpm
  radioactivity in pellet 3: 1400 cpm
  share of radioactivity in cytosolic fraction: 25%
  share of radioactivity in pellet 2: 19%
  share of radioactivity in pellet 3: 5%
[7]
  sensitivity to MAL-induced apoptosis: highly sensitive
[8]; 0.3 mg/ml
  time at which fragmentation of DNA was first seen: 6 h
[8]; 0.5 mg/ml
  incubation time after which HMW DNA fragments were observed: 30 min
  incubation time after which oligonucleosome length DNA fragments were detected: three
[8]; 0.75 mg/ml
  time at which fragmentation of DNA was seen: 2 h
[9]
  sensitivity to MAL-induced apoptosis: intermediately sensitive
[10]; HRTEC cells, 24 h incubation with up to 4 mg/ml
  cell viability: remained fully viable
[10]; non-transformed cultures (HRTEC), within the tested concentration range
  sensitivity to MAL-induced apoptosis: resistant
[11]
  time at which maximum nuclear levels were reached: 20 min

Source: patent US6808930B1, “Therapeutic agents” (priority 1997, dated 2004)
